Experimental data published in patent US20160159924A1 (Novo Nordisk, published 2016).
Numbering of substitutions follows the chain as printed.

B1: rec0266-0000-0010-VH_D95A (antibody, mouse IgG1, V domains shown)
VH: DVKLVESGGGLVKPGGSLKLSCVASGFTFSSYTMSWVRQTPEKRLEWVATISGGGSHIYYADSVKGRFTISRDNAKNTLYLQMSSLKSEDTAIYYCTRAGRDGSWFAYWGQGTLVTVSA
VL: DIVMTQSPATLSVTPGDRVSLSCRTSQSIGDYLHWYQQKSHESPRLLIKYVSQSISGIPSRFSGSGSGSDFTLSINSVESEDVGVYYCQNSHSFPLTFGSGTKLELKR
B2: rec0266-0000-0010-VH_G96T (antibody, mouse IgG1, V domains shown)
VH: B1 VH with A99D, G100T
VL: B1 VL
B3: rec0266-0000-0010-VH_G99E (antibody, mouse IgG1, V domains shown)
VH: B1 VH with A99D, G103E
VL: B1 VL
B4: rec0266-0000-0010-VH_D95R (antibody, mouse IgG1, V domains shown)
VH: B1 VH with A99R
VL: B1 VL
B5: rec0266-0000-0010-VH_G96N (antibody, mouse IgG1, V domains shown)
VH: B1 VH with A99D, G100N
VL: B1 VL
B6: rec0266-0000-0010-VH_G99A (antibody, mouse IgG1, V domains shown)
VH: B1 VH with A99D, G103A
VL: B1 VL
B7: rec0266-0000-0010-VH_G96R (antibody, mouse IgG1, V domains shown)
VH: B1 VH with A99D, G100R
VL: B1 VL
B8: rec0266-0000-0010-VH_D98P (antibody, mouse IgG1, V domains shown)
VH: B1 VH with A99D, D102P
VL: B1 VL
B9: rec0266-0000-0010-VH_D98L (antibody, mouse IgG1, V domains shown)
VH: B1 VH with A99D, D102L
VL: B1 VL
B10: rec0266-0000-0010-VH_D95K (antibody, mouse IgG1, V domains shown)
VH: B1 VH with A99K
VL: B1 VL
B11: rec0266-0000-0010-VH_D95Y (antibody, mouse IgG1, V domains shown)
VH: B1 VH with A99Y
VL: B1 VL
B12: rec0266-0000-0010-VH_D95V (antibody, mouse IgG1, V domains shown)
VH: B1 VH with A99V
VL: B1 VL
B13: rec0266-0000-0010-VH_G96Y (antibody, mouse IgG1, V domains shown)
VH: B1 VH with A99D, G100Y
VL: B1 VL
B14: rec0266-0000-0010-VH_D98Y (antibody, mouse IgG1, V domains shown)
VH: B1 VH with A99D, D102Y
VL: B1 VL
B15: rec0266-0000-0010-VH_D95T (antibody, mouse IgG1, V domains shown)
VH: B1 VH with A99T
VL: B1 VL
B16: rec0266-0000-0010-VH_G96V (antibody, mouse IgG1, V domains shown)
VH: B1 VH with A99D, G100V
VL: B1 VL
B17: rec0266-0000-0010-VH_G96I (antibody, mouse IgG1, V domains shown)
VH: B1 VH with A99D, G100I
VL: B1 VL
B18: rec0266-0000-0010-VH_G96S (antibody, mouse IgG1, V domains shown)
VH: B1 VH with A99D, G100S
VL: B1 VL
B19: rec0266-0000-0010-VH_G96H (antibody, mouse IgG1, V domains shown)
VH: B1 VH with A99D, G100H
VL: B1 VL
B20: rec0266-0000-0010-VH_D98H (antibody, mouse IgG1, V domains shown)
VH: B1 VH with A99D, D102H
VL: B1 VL
B21: rec0266-0000-0010-VH_G96E (antibody, mouse IgG1, V domains shown)
VH: B1 VH with A99D, G100E
VL: B1 VL
B22: rec0266-0000-0010-VH_D95G (antibody, mouse IgG1, V domains shown)
VH: B1 VH with A99G
VL: B1 VL
B23: rec0266-0000-0010-VH_D98T (antibody, mouse IgG1, V domains shown)
VH: B1 VH with A99D, D102T
VL: B1 VL
B24: rec0266-0000-0010-VH_D95F (antibody, mouse IgG1, V domains shown)
VH: B1 VH with A99F
VL: B1 VL
B25: rec0266-0000-0010-VH_G96L (antibody, mouse IgG1, V domains shown)
VH: B1 VH with A99D, G100L
VL: B1 VL
B26: rec0266-0000-0010-VH_G96F (antibody, mouse IgG1, V domains shown)
VH: B1 VH with A99D, G100F
VL: B1 VL
B27: rec0266-0000-0010-VH_D98V (antibody, mouse IgG1, V domains shown)
VH: B1 VH with A99D, D102V
VL: B1 VL
B28: rec0266-0000-0010-VH_G96K (antibody, mouse IgG1, V domains shown)
VH: B1 VH with A99D, G100K
VL: B1 VL
B29: rec0266-0000-0010-VH_G96P (antibody, mouse IgG1, V domains shown)
VH: B1 VH with A99D, G100P
VL: B1 VL
B30: rec0266-0000-0010-VH_D98A (antibody, mouse IgG1, V domains shown)
VH: B1 VH with A99D, D102A
VL: B1 VL
B31: rec0266-0000-0010-VH_D95L (antibody, mouse IgG1, V domains shown)
VH: B1 VH with A99L
VL: B1 VL
B32: rec0266-0000-0010-VH_D98F (antibody, mouse IgG1, V domains shown)
VH: B1 VH with A99D, D102F
VL: B1 VL
B33: rec0266-0000-0010-VH_D95S (antibody, mouse IgG1, V domains shown)
VH: B1 VH with A99S
VL: B1 VL
B34: rec0266-0000-0010-VH_D98R (antibody, mouse IgG1, V domains shown)
VH: B1 VH with A99D, D102R
VL: B1 VL
B35: rec0266-0000-0010-VH_G99F (antibody, mouse IgG1, V domains shown)
VH: B1 VH with A99D, G103F
VL: B1 VL
B36: rec0266-0000-0010-VH_D98K (antibody, mouse IgG1, V domains shown)
VH: B1 VH with A99D, D102K
VL: B1 VL
B37: rec0266-0000-0010-VH_D98S (antibody, mouse IgG1, V domains shown)
VH: B1 VH with A99D, D102S
VL: B1 VL
B38: rec0266-0000-0010-VH_D95H (antibody, mouse IgG1, V domains shown)
VH: B1 VH with A99H
VL: B1 VL
B39: rec0266-0000-0010-VH_D98I (antibody, mouse IgG1, V domains shown)
VH: B1 VH with A99D, D102I
VL: B1 VL
B40: rec0266-0000-0010-VH_D98G (antibody, mouse IgG1, V domains shown)
VH: B1 VH with A99D, D102G
VL: B1 VL
B41: rec0266-0000-0010-VH_G96A (antibody, mouse IgG1, V domains shown)
VH: B1 VH with A99D, G100A
VL: B1 VL
B42: rec0266-0000-0010-VH_D95E (antibody, mouse IgG1, V domains shown)
VH: B1 VH with A99E
VL: B1 VL
B43: rec0266-0000-0010-VH_D95I (antibody, mouse IgG1, V domains shown)
VH: B1 VH with A99I
VL: B1 VL
B44: rec0266-0000-0010-VH_D98E (antibody, mouse IgG1, V domains shown)
VH: B1 VH with A99D, D102E
VL: B1 VL
B45: rec0266-0000-0010-VH_D95P (antibody, mouse IgG1, V domains shown)
VH: B1 VH with A99P
VL: B1 VL

target: T1, recombinant human sc-uPA (human, UniProt P00749 21-431); assay: SPR, mAb immobilised
T1 construct: 411 amino acid single-chain zymogen expressed in HEK293; the 20-residue signal peptide is not present in the mature protein; also called human single-chain uPA; pro-uPA
Description: The binding affinity to recombinant human sc-uPA protein (SEQ ID NO:1) was measured by surface plasmon resonance (SPR).
The experiments were performed on a Biacore™ instrument (GE Healthcare) and analysed with the BIAcore 4000 Evaluation Software. Anti-human uPA mAb variants were directly immobilized at 150-600 RU on flow cells of a CM5 sensor chip (GE Healthcare; cat. # BR-1000-12) via amine coupling, respectively. Recombinant human sc-uPA was diluted in HBS-N (GE Healthcare Cat BR-1006-70) with 1% BSA buffer with a dilution factor 3× ranging 1000-0.13 nM. Recombinant human sc-uPA was injected for 60 s, followed by a 600 s dissociation phase. Binding curves were measured at 25° C. with a flow rate of 30 μL/min. Regeneration of the chip surface was performed with pH1.5 Glycine for 25 s at 30 μl/min. Determination of the kinetic parameters was performed by fitting with a 1:1 binding model. Binding affinities were calculated and are stated in Table 17 below.

| Kd | Binder |
| --- | --- |
| 2.6 nM | B1 |
| 3 nM | B2 |
| 1.4 nM | B3 |
| 1.3 nM | B4 |
| 21 nM | B5 |
| 2.4 nM | B6 |
| 3 nM | B7 |
| 0.98 nM | B8 |
| 2 nM | B9 |
| 12 nM | B10 |
| 5 nM | B11 |
| 0.8 nM | B12 |
| 13 nM | B13 |
| 1.8 nM | B14 |
| 1.5 nM | B15 |
| 2.1 nM | B16 |
| 1.8 nM | B17 |
| 1.3 nM | B18 |
| 5.8 nM | B19 |
| 1.7 nM | B20 |
| 2.3 nM | B21 |
| 12 nM | B22 |
| 2.2 nM | B23 |

| Kd | Binder |
| --- | --- |
| 12 nM | B24 |
| 1.9 nM | B25 |
| 7.2 nM | B26 |
| 2.1 nM | B27 |
| 0.95 nM | B28 |
| 2.1 nM | B29 |
| 0.95 nM | B30 |
| 4.7 nM | B31 |
| 1.5 nM | B32 |
| 4 nM | B33 |
| 1.1 nM | B34 |
| 1.7 nM | B35 |
| 2 nM | B36 |
| 14 nM | B37 |
| 6.5 nM | B38 |
| 2 nM | B39 |
| 2.4 nM | B40 |
| 1.5 nM | B41 |
| 2 nM | B42 |
| 1.4 nM | B43 |
| 4.9 nM | B44 |
| 2.7 nM | B45 |
